Results taken from patent US20170267766A1 (PIERRE FABRE MEDICAMENT, published 2017).

Columns and labels:
[1] = target: T1, human IGF-1R (native, on cells) (human, UniProt P08069 31-1367); test: FACS titration, MCF-7
T1 construct: also called hIGF-1R; native IGF-1R on MCF-7 cells
Method: The binding properties of a series of anti-IGF-1R antibodies were evaluated by FACS analyses on the human MCF-7 breast adenocarcinoma cell line (ATCC#HTB-22) using increasing antibody concentrations. For that purpose, cells (1×10⁶ cells/ml) were incubated with anti-IGF-1R antibodies for 20 min. at 4° C. in FACS buffer (PBS, 0.1% BSA, 0.01% NaN₃). They were then washed 3 times and incubated with the appropriate secondary antibody coupled with Alexa 488 for 20 additional minutes at 4° C. in the dark before being washed 3 times in FACS buffer. The binding of anti-IGF-1R antibodies was immediately performed on viable cells which were identified using propidium iodide (that stains dead cells). The maximum of signal intensity obtained with each antibody was designed as Bₘₐₓ and expressed in mean of fluorescence intensity (MFI). The EC₅₀ of binding expressed in molarity (M) was calculated using a nonlinear regression analysis (GraphPad Prims 4.0).

[2] = target: T1, human IGF-1R (native, on cells); test: cell-based or functional assay
[3] = target: T2, monkey IGF-1R (on COS-7 cells) (African green monkey); test: cell-based or functional assay
[4] = target: T1, human IGF-1R (native, on cells); test: FACS titration, hIGF-1R transfected cells
Method: Briefly, increasing concentrations of chimeric mAbs were incubated with cells for 20 min at 4° C. in FACS buffer (PBS, 0.1% BSA, 0.01% NaN₃). Cells were then washed 3 times and incubated with the appropriate secondary antibody coupled with Alexa 488 before being incubated for 20 additional minutes at 4° C. in the dark and then washed 3 times in FACS buffer. The binding of anti-IGF-1R antibodies was immediately performed on viable cells which were identified using propidium iodide (that stains dead cells). The binding EC₅₀ expressed in molarity (M) was calculated using a nonlinear regression analysis (GraphPad Prims 4.0).

[5] = target: T1, human IGF-1R (native, on cells); test: cell-based or functional assay; remark: listed apart in the source
[6] = target: T1, human IGF-1R (native, on cells); test: FACS titration, MCF-7; remark: listed apart in the source
Method: (§1) The binding properties of the humanized variants were evaluated by FACS analyses on the human MCF-7 breast adenocarcinoma cell line and the monkey cell line Cos-7 using increasing antibody concentrations. For that purpose, cells (1×10⁶ cells/ml) were incubated with anti-IGF-1R humanized antibodies for 20 min. at 4° C. in FACS buffer (PBS, 0.1% BSA, 0.01% NaN3). They were then washed 3 times and incubated with the appropriate secondary antibody coupled with Alexa 488 for 20 additional minutes at 4° C. in the dark before being washed 3 times in FACS buffer. The binding of anti-IGF-1R antibodies was immediately performed on viable cells which were identified using propidium iodide (that stains dead cells). The EC₅₀ of binding expressed in molarity (M) was calculated using a nonlinear regression analysis (GraphPad Prims 4.0).

[7] = target: T2, monkey IGF-1R (on COS-7 cells); test: FACS titration, Cos-7
Method: as §1

B1: c212A11 (antibody, human IgG1, kappa, V domains shown)
VH: QVQLQQSGPELVKPGASVKMSCKASGYTFTSYYIHWVKQRPGQGLEWIGWIWPGDGSTKYNEKFKGKTTLTADKSSSTAYMFLSSLTSEDSAVYFCASPMITPNYAMDYWGQGASVTVSS
VL: DIQMTQTTSSLSASLGDRVTISCRASQDINKYLNWYQQQPDGTVKLLIYYTSRLHSGVPSRFSGRGSGTDYSLTISNLEQEDIATYFCQQGSTLPYTFGGGTKLEIKR
notes: group G2; also called chimeric 212A11
Bmax [1]: 991 MFI
EC50 [1]: 0.67 nM
% Internalization (MCF-7, 10 µg/ml, 4 h) [2]: 80%
ΔMFI [2]: 322 MFI
% internalisation [3]: 75%
ΔMFI [3]: 98 MFI
Bmax [4]: 2510 MFI
EC50 [4]: 0.44 nM
hIGF-1R phosphorylation, % of that induced by IGF-1 (MCF-7, Ab 10 µg/ml) [5]: < 20%

B2: hz208F2 H070/L018 (antibody, human IgG1, kappa, V domains shown)
VH: QVQLVQSGAEVKKPGASVKVSCKASGYTFTSYYMHWVRQAPGQGLEWMGWIWPGDGSTKYAQKFQGRVTMTRDTSTSTVYMELSSLRSEDTAVYYCASPMITPNYAMDYWGQGTLVTVSS
VL: DIQMTQSPSSLSASVGDRVTITCRASQDISKYLNWYQQKPGKAPKLLIYYTSRLQSGVPSRFSGRGSGTDYSLTISSLQPEDFATYFCQQGSTLPYTFGGGTKVEIKR
notes: humanized 208F2 variant
EC50 [6]: 0.46 nM
EC50 [7]: 0.73 nM

B3: hz208F2 H052/L018 (antibody, human IgG1, kappa, V domains shown)
VH: QVQLVQSGAEVKKPGASVKVSCKASGYTFTSYYMHWVRQAPGQGLEWMGWIWPGDGSTKYAQKFQGRVTMTRDTSTSTVYMELSSLRSEDTAVYFCASPMITPNYAMDYWGQGTLVTVSS
VL: DIQMTQSPSSLSASVGDRVTITCRASQDISKYLNWYQQKPGKAPKLLIYYTSRLQSGVPSRFSGRGSGTDYSLTISSLQPEDFATYFCQQGSTLPYTFGGGTKVEIKR
notes: humanized 208F2 variant
EC50 [6]: 0.84 nM
EC50 [7]: 0.99 nM

B4: hz208F2 H052/L021 (antibody, human IgG1, kappa, V domains shown)
VH: QVQLVQSGAEVKKPGASVKVSCKASGYTFTSYYMHWVRQAPGQGLEWMGWIWPGDGSTKYAQKFQGRVTMTRDTSTSTVYMELSSLRSEDTAVYFCASPMITPNYAMDYWGQGTLVTVSS
VL: DIQMTQSPSSLSASVGDRVTITCRASQDISKYLNWYQQKPGKAPKLLIYYTSRLHSGVPSRFSGRGSGTDFSLTISSLQPEDFATYFCQQGSTLPYTFGGGTKVEIKR
notes: humanized 208F2 variant
EC50 [6]: 0.57 nM
EC50 [7]: 1.2 nM

B5: hz208F2 H051/L018 (antibody, human IgG1, kappa, V domains shown)
VH: QVQLVQSGAEVKKPGASVKVSCKASGYTFTSYYMHWVRQAPGQGLEWMGWIWPGDGSTKYAQKFQGRVTMTRDTSSNTVYMELSSLRSEDTAVYFCASPMITPNYAMDYWGQGTLVTVSS
VL: DIQMTQSPSSLSASVGDRVTITCRASQDISKYLNWYQQKPGKAPKLLIYYTSRLQSGVPSRFSGRGSGTDYSLTISSLQPEDFATYFCQQGSTLPYTFGGGTKVEIKR
notes: humanized 208F2 variant
EC50 [6]: 0.57 nM
EC50 [7]: 0.72 nM

B6: hz208F2 H076/L021 (antibody, human IgG1, kappa, V domains shown)
VH: QVQLVQSGAEVKKPGASVKVSCKASGYTFTSYYIHWVRQAPGQGLEWMGWIWPGDGSTKYAQKFQGRVTMTRDTSTSTVYMELSSLRSEDTAVYYCASPMITPNYAMDYWGQGTLVTVSS
VL: DIQMTQSPSSLSASVGDRVTITCRASQDISKYLNWYQQKPGKAPKLLIYYTSRLHSGVPSRFSGRGSGTDFSLTISSLQPEDFATYFCQQGSTLPYTFGGGTKVEIKR
notes: humanized 208F2 variant
EC50 [7]: 1.1 nM

B7: hz208F2 H071/L018 (antibody, human IgG1, kappa, V domains shown)
VH: QVQLVQSGAEVKKPGASVKVSCKASGYTFTSYYMHWVRQAPGQGLEWMGWIWPGDGSTKYAQKFQGRVTMTRDTSTNTVYMELSSLRSEDTAVYYCASPMITPNYAMDYWGQGTLVTVSS
VL: DIQMTQSPSSLSASVGDRVTITCRASQDISKYLNWYQQKPGKAPKLLIYYTSRLQSGVPSRFSGRGSGTDYSLTISSLQPEDFATYFCQQGSTLPYTFGGGTKVEIKR
notes: humanized 208F2 variant
EC50 [6]: 0.55 nM
EC50 [7]: 1.1 nM

B8: hz208F2 H037/L021 (antibody, human IgG1, kappa, V domains shown)
VH: QVQLVQSGAEVKKPGASVKVSCKASGYTFTSYYMHWVRQAPGQGLEWMGWIWPGDGSTKYAQKFQGRVTMTRDKSSSTVYMELSSLRSEDTAVYFCASPMITPNYAMDYWGQGTLVTVSS
VL: DIQMTQSPSSLSASVGDRVTITCRASQDISKYLNWYQQKPGKAPKLLIYYTSRLHSGVPSRFSGRGSGTDFSLTISSLQPEDFATYFCQQGSTLPYTFGGGTKVEIKR
notes: humanized 208F2 variant
EC50 [6]: 0.48 nM
EC50 [7]: 0.82 nM

B9: hz208F2 H068/L018 (antibody, human IgG1, kappa, V domains shown)
VH: QVQLVQSGAEVKKPGASVKVSCKASGYTFTSYYMHWVRQAPGQGLEWMGWIWPGDGSTKYAQKFQGRVTMTRDTSTNTVYMELSSLRSEDTAVYFCASPMITPNYAMDYWGQGTLVTVSS
VL: DIQMTQSPSSLSASVGDRVTITCRASQDISKYLNWYQQKPGKAPKLLIYYTSRLQSGVPSRFSGRGSGTDYSLTISSLQPEDFATYFCQQGSTLPYTFGGGTKVEIKR
notes: humanized 208F2 variant
EC50 [6]: 1.1 nM
EC50 [7]: 1.2 nM

B10: hz208F2 H057/L018 (antibody, human IgG1, kappa, V domains shown)
VH: QVQLVQSGAEVKKPGASVKVSCKASGYTFTSYYIHWVRQAPGQGLEWMGWIWPGDGSTKYAQKFQGRVTMTRDKSTNTVYMELSSLRSEDTAVYYCASPMITPNYAMDYWGQGTLVTVSS
VL: DIQMTQSPSSLSASVGDRVTITCRASQDISKYLNWYQQKPGKAPKLLIYYTSRLQSGVPSRFSGRGSGTDYSLTISSLQPEDFATYFCQQGSTLPYTFGGGTKVEIKR
notes: humanized 208F2 variant
EC50 [6]: 0.58 nM
EC50 [7]: 0.83 nM

B11: hz208F2 H076/L018 (antibody, human IgG1, kappa, V domains shown)
VH: QVQLVQSGAEVKKPGASVKVSCKASGYTFTSYYIHWVRQAPGQGLEWMGWIWPGDGSTKYAQKFQGRVTMTRDTSTSTVYMELSSLRSEDTAVYYCASPMITPNYAMDYWGQGTLVTVSS
VL: DIQMTQSPSSLSASVGDRVTITCRASQDISKYLNWYQQKPGKAPKLLIYYTSRLQSGVPSRFSGRGSGTDYSLTISSLQPEDFATYFCQQGSTLPYTFGGGTKVEIKR
notes: humanized 208F2 variant
EC50 [6]: 0.65 nM
EC50 [7]: 1.1 nM

B12: hz208F2 H049/L018 (antibody, human IgG1, kappa, V domains shown)
VH: QVQLVQSGAEVKKPGASVKVSCKASGYTFTSYYMHWVRQAPGQGLEWMGWIWPGDGSTKYAQKFQGRVTMTRDKSSSTVYMELSSLRSEDTAVYYCASPMITPNYAMDYWGQGTLVTVSS
VL: DIQMTQSPSSLSASVGDRVTITCRASQDISKYLNWYQQKPGKAPKLLIYYTSRLQSGVPSRFSGRGSGTDYSLTISSLQPEDFATYFCQQGSTLPYTFGGGTKVEIKR
notes: humanized 208F2 variant
EC50 [6]: 0.49 nM
EC50 [7]: 0.69 nM

B13: hz208F2 H047/L018 (antibody, human IgG1, kappa, V domains shown)
VH: QVQLVQSGAEVKKPGASVKVSCKASGYTFTSYYIHWVRQAPGQGLEWMGWIWPGDGSTKYAQKFQGRVTMTRDTSSNTVYMELSSLRSEDTAVYYCASPMITPNYAMDYWGQGTLVTVSS
VL: DIQMTQSPSSLSASVGDRVTITCRASQDISKYLNWYQQKPGKAPKLLIYYTSRLQSGVPSRFSGRGSGTDYSLTISSLQPEDFATYFCQQGSTLPYTFGGGTKVEIKR
notes: humanized 208F2 variant
EC50 [6]: 0.77 nM
EC50 [7]: 0.92 nM

B14: hz208F2 H037/L018 (antibody, human IgG1, kappa, V domains shown)
VH: QVQLVQSGAEVKKPGASVKVSCKASGYTFTSYYMHWVRQAPGQGLEWMGWIWPGDGSTKYAQKFQGRVTMTRDKSSSTVYMELSSLRSEDTAVYFCASPMITPNYAMDYWGQGTLVTVSS
VL: DIQMTQSPSSLSASVGDRVTITCRASQDISKYLNWYQQKPGKAPKLLIYYTSRLQSGVPSRFSGRGSGTDYSLTISSLQPEDFATYFCQQGSTLPYTFGGGTKVEIKR
notes: humanized 208F2 variant
EC50 [6]: 0.49 nM
EC50 [7]: 0.74 nM

B15: hz208F2 H077/L018 (antibody, human IgG1, kappa, V domains shown)
VH: QVQLVQSGAEVKKPGASVKVSCKASGYTFTSYYIHWVRQAPGQGLEWMGWIWPGDGSTKYAQKFQGRVTMTRDTSTSTVYMELSSLRSEDTAVYFCASPMITPNYAMDYWGQGTLVTVSS
VL: DIQMTQSPSSLSASVGDRVTITCRASQDISKYLNWYQQKPGKAPKLLIYYTSRLQSGVPSRFSGRGSGTDYSLTISSLQPEDFATYFCQQGSTLPYTFGGGTKVEIKR
notes: humanized 208F2 variant
EC50 [6]: 0.77 nM
EC50 [7]: 1.1 nM

B16: hz208F2 H049/L021 (antibody, human IgG1, kappa, V domains shown)
VH: QVQLVQSGAEVKKPGASVKVSCKASGYTFTSYYMHWVRQAPGQGLEWMGWIWPGDGSTKYAQKFQGRVTMTRDKSSSTVYMELSSLRSEDTAVYYCASPMITPNYAMDYWGQGTLVTVSS
VL: DIQMTQSPSSLSASVGDRVTITCRASQDISKYLNWYQQKPGKAPKLLIYYTSRLHSGVPSRFSGRGSGTDFSLTISSLQPEDFATYFCQQGSTLPYTFGGGTKVEIKR
notes: humanized 208F2 variant
EC50 [7]: 0.85 nM
